B1: AlaPro-mTGase from S. mobaraensis (enzyme)
chain: APDSDDRVTPPAEPLDRMPDPYRPSYGRAETVVNNYIRKWQQVYSHRDGRKQQMTEEQREWLSYGCVGVTWVNSGQYPTNRLAFASFDEDRFKNELKNGRPRSGETRAEFEGRVAKESFDEEKGFQRAREVASVMNRALENAHDESAYLDNLKKELANGNDALRNEDARSPFYSALRNTPSFKERNGGNHDPSRMKAVIYSKHFWSGQDRSSSADKRKYGDPDAFRPAPGTGLVDMSRDRNIPRSPTSPGEGFVNFDYGWFGAQTEADADKTVWTHGNHYHAPNGSLGAMHVYESKFRNWSEGYSDFDRGAYVITFIPKSWNTAPDKVKQGWP
B2: GlyPro-mTGase_Y75F from S. ladakanum (enzyme)
chain: GPDSDERVTPPAEPLDRMPDPYRPSYGRAETIVNNYIRKWQQVYSHRDGRKQQMTEEQREWLSYGCVGVTWVNSGQFPTNRLAFAFFDEDKYKNELKNGRPRSGETRAEFEGRVAKDSFDEAKGFQRARDVASVMNKALENAHDEGAYLDNLKKELANGNDALRNEDARSPFYSALRNTPSFKDRNGGNHDPSKMKAVIYSKHFWSGQDRSGSSDKRKYGDPEAFRPDRGTGLVDMSRDRNIPRSPTSPGESFVNFDYGWFGAQTEADADKTVWTHGNHYHAPNGSLGAMHVYESKFRNWSDGYSDFDRGAYVVTFVPKSWNTAPDKVKQGWP
B3: GlyPro-mTGase_Y62H_Y75F from S. ladakanum (enzyme)
chain: B2 chain with Y64H, K329T
B4: GlyPro-mTGase_Y62H_Y75N from S. ladakanum (enzyme)
chain: B2 chain with Y64H, F77N
B5: GlyPro-mTGase_Y75N from S. ladakanum (enzyme)
chain: B2 chain with F77N
B6: GlyPro-mTGase_Y75A from S. ladakanum (enzyme)
chain: B2 chain with F77A
B7: GlyPro-mTGase from S. ladakanum (enzyme)
chain: B2 chain with F77Y
B8: S. ladakanum GlyPro-TGase mutant S250M (enzyme)
chain: B2 chain with F77Y, S252M
B9: S. ladakanum GlyPro-TGase mutant S250Q (enzyme)
chain: B2 chain with F77Y, S252Q
B10: S. ladakanum GlyPro-TGase mutant Y62N (enzyme)
chain: B2 chain with Y64N, F77Y
B11: S. ladakanum GlyPro-TGase mutant S250W (enzyme)
chain: B2 chain with F77Y, S252W
B12: S. ladakanum GlyPro-TGase mutant S250L (enzyme)
chain: B2 chain with F77Y, S252L
B13: S. ladakanum GlyPro-TGase mutant S250F (enzyme)
chain: B2 chain with F77Y, S252F
B14: S. ladakanum GlyPro-TGase mutant S250C (enzyme)
chain: B2 chain with F77Y, S252C
B15: S. ladakanum GlyPro-TGase mutant S250D (enzyme)
chain: B2 chain with F77Y, S252D
B16: S. ladakanum GlyPro-TGase mutant S250H (enzyme)
chain: B2 chain with F77Y, S252H
B17: S. ladakanum GlyPro-TGase mutant S250V (enzyme)
chain: B2 chain with F77Y, S252V
B18: S. ladakanum GlyPro-TGase mutant S250P (enzyme)
chain: B2 chain with F77Y, S252P
B19: S. ladakanum GlyPro-TGase mutant Y75L (enzyme)
chain: B2 chain with F77L
B20: S. ladakanum GlyPro-TGase mutant Y62M (enzyme)
chain: B2 chain with Y64M, F77Y
B21: S. ladakanum GlyPro-TGase mutant S250G (enzyme)
chain: B2 chain with F77Y, S252G
B22: S. ladakanum GlyPro-TGase mutant S250R (enzyme)
chain: B2 chain with F77Y, S252R
B23: S. ladakanum GlyPro-TGase mutant S250Y (enzyme)
chain: B2 chain with F77Y, S252Y
B24: S. ladakanum GlyPro-TGase mutant S250A (enzyme)
chain: B2 chain with F77Y, S252A
B25: S. ladakanum GlyPro-TGase mutant Y62L (enzyme)
chain: B2 chain with Y64L, F77Y
B26: S. ladakanum GlyPro-TGase mutant Y62T (enzyme)
chain: B2 chain with Y64T, F77Y
B27: S. ladakanum GlyPro-TGase mutant Y75M (enzyme)
chain: B2 chain with F77M
B28: S. ladakanum GlyPro-TGase mutant Y75C (enzyme)
chain: B2 chain with F77C

Substitutions are numbered along the chain they refer to. Numbers in names are those of the source.

Sequence of hGHQ141N (P01241 27-217 Q167N): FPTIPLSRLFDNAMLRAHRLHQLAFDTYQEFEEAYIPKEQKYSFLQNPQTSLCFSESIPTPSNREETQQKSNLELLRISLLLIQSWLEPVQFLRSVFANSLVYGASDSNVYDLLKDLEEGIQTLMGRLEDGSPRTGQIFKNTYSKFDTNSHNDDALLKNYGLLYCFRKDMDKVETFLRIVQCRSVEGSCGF
Sequence of wild type human growth hormone (P01241 27-217): as the sequence (P01241 27-217 Q167N) above, with N141Q counted along it
Sequence of hGHQ40N (P01241 27-217 Q66N): as the sequence (P01241 27-217 Q167N) above, with Q40N, N141Q counted along it

One test concerns the target wild type human growth hormone (human, UniProt P01241 27-217). Briefly: cell-based or functional assay.
In the case of B1, the “RS (relative selectivity against AlaPro-mTGase from S. mobaraensis)” value was determined as 1. In the case of B2, the “RS (relative selectivity against AlaPro-mTGase from S. mobaraensis)” value was 5.1.

For B3, the “RS (relative selectivity against AlaPro-mTGase from S. mobaraensis)” value turned out to be 6.4. As for B4, the “RS (relative selectivity against AlaPro-mTGase from S. mobaraensis)” value worked out at 4.6.

Consider B5, for which the “RS (relative selectivity against AlaPro-mTGase from S. mobaraensis)” value is 3.4. Still for that read-out and setting: next, B6: 3. Regarding B7, the “RS (relative selectivity against AlaPro-mTGase from S. mobaraensis)” value was found to be 1.8.

A further test addresses hGHQ40N (human, UniProt P01241 27-217). Briefly: cell-based or functional assay.
For B8, the “RSA Q141” value was 3.25 relative to wild type TGase.

Regarding B9, the “RSA Q141” value is 1.92 relative to wild type TGase. Same read-out and setting: in the case of B10 it was 0.18 relative to wild type TGase. With B11, the “RSA Q141” value was 2.43 relative to wild type TGase. The same measure, in the same setting: next, B12: 3.59 relative to wild type TGase; B13: 2.63 relative to wild type TGase. Still for that read-out and setting: in the case of B14 it was 5.34 relative to wild type TGase. Still for that read-out and setting: next, B15: 1.04 relative to wild type TGase; B16: 2.25 relative to wild type TGase; B17: 0.96 relative to wild type TGase.

Regarding B18, the “RSA Q141” value was 3.99 relative to wild type TGase.

Turning to B19, the “RSA Q141” value is 0.18 relative to wild type TGase. Same read-out and setting: in the case of B20 it was 0.28 relative to wild type TGase; in that of B21, 2.42 relative to wild type TGase. Regarding B22, the “RSA Q141” value is 0.83 relative to wild type TGase. As to B23, the “RSA Q141” value was 1.71 relative to wild type TGase. Regarding B24, the “RSA Q141” value is 4.23 relative to wild type TGase. For B6, the “RSA Q141” value was 0.06 relative to wild type TGase. B25: the “RSA Q141” value is 0.2 relative to wild type TGase. Consider B26, for which the “RSA Q141” value was 0.19 relative to wild type TGase. Same read-out and setting: in the case of B27 it was 0.18 relative to wild type TGase; in that of B28, 0.18 relative to wild type TGase.

A further test has as its target hGHQ141N (human, UniProt P01241 27-217). Briefly: cell-based or functional assay.
On to B8, for which the “RSA Q40” value is 2.22 relative to wild type TGase. Still for that read-out and setting: next, B9: 1.62 relative to wild type TGase; B10: 0.05 relative to wild type TGase. For B11, the “RSA Q40” value is 1.3 relative to wild type TGase.

B12: the “RSA Q40” value is 1.9 relative to wild type TGase. On the same count and under the same terms, next, B13: 1.85 relative to wild type TGase. As for B14, the “RSA Q40” value was 3.02 relative to wild type TGase. Still for that read-out and setting: in the case of B15 it was 0.76 relative to wild type TGase; in that of B16, 1.4 relative to wild type TGase. With B17, the “RSA Q40” value was 0.51 relative to wild type TGase. On the same count and under the same terms, next, B18: 1.86 relative to wild type TGase; B19: 0.06 relative to wild type TGase. Still for that read-out and setting: next, B20: 0.1 relative to wild type TGase; B21: 1.77 relative to wild type TGase; B22: 0.59 relative to wild type TGase.

In the case of B23, the “RSA Q40” value is 0.95 relative to wild type TGase. Turning to B24, the “RSA Q40” value is 2.57 relative to wild type TGase.

In the case of B6, the “RSA Q40” value was 0.03 relative to wild type TGase.

For B25, the “RSA Q40” value is 0.07 relative to wild type TGase.

Turning to B26, the “RSA Q40” value was 0.1 relative to wild type TGase. The same measure, in the same setting: next, B27: 0.1 relative to wild type TGase.

For B28, the “RSA Q40” value was 0.06 relative to wild type TGase.

For the origin of these results see patent US20100099610A1 (published 2010).
